# From patent US20250041379A1, “METHODS AND COMPOSITIONS FOR THE TREATMENT OF CANCER” (Vigeo Therapeutics, Inc., priority 2021, published 2025)
# No end group written: not given here.
# Tests used:
# [1] = test system: subjects with pancreatic cancer; experiment: Phase I/II clinical study (NCT03364400): adverse events in subjects with pancreatic cancer; format: in vivo, human
# Experimental: VT1021 was evaluated in a recently completed phase I/II open-label, multicenter, dose escalation (Part 1) and expansion (Part 2) clinical study in advanced, refractory, solid tumors including pancreatic cancer (NCT03364400). Seven subjects with pancreatic cancer were dosed in Part 1 and 32 were dosed in Part 2, 17 of which were considered evaluable as having completed ≥1 cycle of VT1021 treatment and tumor imaging during cycle 2. […] In the “expansion stage” of the VT1021-01 Study, subjects diagnosed with recurrent GBM, pancreatic cancer, ovarian cancer and other solid tumors were enrolled. They were treated with VT1021 at 11.8 mg/kg, twice weekly by IV infusion. The blood samples were collected from the clinical study at pre-treatment, 0, 2, 4, 6 hours post treatment to measure the levels of VT1021 (FIG. 2). The tumor biopsy samples prior to treatment and during treatment were collected from the clinical study to measure expression levels of biomarkers including CD36 and CD47, as well as cell surface markers for immune cell populations in the TME by immunohistochemistry assays (FIG. 3, FIG. 4, FIG. 5). The correlation between days on study and tumor shrinkage versus expression profile of CD36 and CD47 was analyzed (FIG. 4). The general expression profile of CD36 and CD47 has been assessed by IHC on Tumor Tissue Microarrays (TMAs), which contain biopsy samples collected from pancreatic cancer patients. TMAs were purchased from commercial sources, not related to the VT1021-01 clinical study. Common adverse effects (AEs) in escalation subjects with pancreatic cancer (Part 1) are shown in Table 1 The AEs shown occurred in 2 or more subjects, all cycles, maximum grade, regardless of toxicity). Of 39 pancreatic cancer subjects enrolled and dosed, 7 subjects were enrolled in the Part 1 escalation cohort. All 7 subjects reported at least one AE (regardless of causality). Four subjects had at least one AE, which was probably or possibly related to the study drug. […] Five subjects reported at least one severe adverse event (SAE) (regardless of causality). Two subjects had SAEs definitely or possibly related to study drug: infusion related reaction (grade 3), altered mental status (grade 2). Thirty-two subjects were enrolled in the Part 2 […] cohort. Thirty subjects reported at least one AE (regardless of causality). Eighteen subjects had at least one AE definitely, probably or possibly related to the study drug. Twenty subjects reported at least one SAE (regardless of causality). Two subjects had SAEs possibly related to study drug: thrombosis (grade 3), fever (grade 1)
# [2] = test system: animal models of ovarian, pancreatic, and breast cancer; experiment: Preclinical studies in animal models of cancer; format: in vivo; settings: multiple animal models of ovarian
# [3] = test system: recurrent GBM (rGBM); experiment: Phase I/II clinical study: clinical response and duration of treatment in recurrent GBM; format: in vivo, human
# Experimental: VT1021 was evaluated in a recently completed phase I/II open-label, multicenter, dose escalation (Part 1) and expansion (Part 2) clinical study in advanced, refractory, solid tumors including recurrent GBM (rGBM) (NCT03364400). Thirty-two subjects with rGBM were dosed in Part 2, 22 of which were considered evaluable as having completed ≥1 cycle of VT1021 treatment and tumor imaging during cycle 2. […] The blood samples were collected from GBM subjects in the expansion phase, who were treated by VT1021 at 11.8 mg/kg, twice weekly, by IV infusion. VT1021 levels were measured and analyzed among male and female subjects (FIG. 7). Days on study have been collected from the same group of subjects (FIG. 8). […] CD36 and CD47 levels have been measured by immunohistochemistry assays in the pre-treatment tumor biopsy samples of the GBM subjects (FIG. 9, FIG. 10). Levels of Tsp-1 were measured by ELISA for circulating Tsp-1 levels in the collected blood samples, and by immunohistochemistry for the level of Tsp-1 accumulated in the tumor biopsy samples (FIG. 10). The infiltration of immune and inflammatory cells, specifically, MDSCs, T cells and macrophages, were determined by immunohistochemical analysis of the levels of cell surface markers in the tumor biopsy samples of subjects (FIG. 11). […] Among 22 evaluable rGBM subjects, 3 had complete response (CR), 1 had partial response (PR), and 7 had stable disease (SD) with an average study duration of over 203 days. The overall disease control rate (DCR) was 50%. […] Of the 11 CR/PR/SDs, 6 were dual high (55%). […] Complete response scan images and lesion shrinkage for 1 of 3 subjects who achieved CR.
# [4] = Part 1 escalation cohort, 7 pancreatic cancer subjects
# [5] = Part 1 escalation, pancreatic cancer, all cycles, maximum grade
# [6] = Part 2 cohort, 32 pancreatic cancer subjects
# [7] = Part 2 expansion, pancreatic cancer, all cycles, maximum grade
# [8] = among 22 evaluable rGBM subjects
# [9] = among the 9 CD36/CD47 dual-high rGBM subjects
# [10] = the 9 CD36/CD47 dual-high rGBM subjects
substance,measurement,setting,value
"cyclic DWLPK (also: cyclic, mode of cyclisation not given here) [VT1021, 5-amino acid cyclic peptide from prosaposin; Tsp-1-inducing agent]","Urinary tract infection (AE), Grade 2",[1],2 subjects
same,subjects with SAEs definitely or possibly related to study drug,"[1]; Part 1, 7 pancreatic cancer subjects, infusion related reaction (grade 3), altered mental status (grade 2)",Two
same,dose-limiting toxicity,[1]; [4],no dose-limiting toxicity
same,subjects reporting at least one AE (regardless of causality),[1]; [4],7 subjects
same,subjects reporting at least one severe adverse event (SAE) (regardless of causality),[1]; [4],Five
same,subjects with at least one AE probably or possibly related to the study drug,[1]; [4],Four
same,"Abdominal pain (AE), Grade 1",[1]; [5],3 subjects
same,"Abdominal pain (AE), Grade 3",[1]; [5],1 subjects
same,"Abdominal pain (AE), Total",[1]; [5],4 subjects
same,"Constipation (AE), Grade 1",[1]; [5],1 subjects
same,"Constipation (AE), Grade 3",[1]; [5],1 subjects
same,"Constipation (AE), Total",[1]; [5],2 subjects
same,"Fatigue (AE), Grade 1",[1]; [5],2 subjects
same,"Fatigue (AE), Total",[1]; [5],2 subjects
same,"Infusion related reaction (AE), Grade 2",[1]; [5],1 subjects
same,"Infusion related reaction (AE), Grade 3",[1]; [5],1 subjects
same,"Infusion related reaction (AE), Total",[1]; [5],2 subjects
same,"Nausea (AE), Grade 1",[1]; [5],2 subjects
same,"Nausea (AE), Total",[1]; [5],2 subjects
same,"Thrombosis (AE), Grade 3",[1]; [5],2 subjects
same,"Thrombosis (AE), Total",[1]; [5],2 subjects
same,subjects with SAEs possibly related to study drug,"[1]; Part 2, 32 pancreatic cancer subjects, thrombosis (grade 3), fever (grade 1)",Two
same,subjects reporting at least one AE (regardless of causality),[1]; [6],Thirty
same,subjects reporting at least one SAE (regardless of causality),[1]; [6],Twenty
same,"subjects with at least one AE definitely, probably or possibly related to the study drug",[1]; [6],Eighteen
same,"Abdominal pain (AE), Grade 1",[1]; [7],3 subjects
same,"Abdominal pain (AE), Grade 2",[1]; [7],9 subjects
same,"Abdominal pain (AE), Grade 3",[1]; [7],4 subjects
same,"Abdominal pain (AE), Total",[1]; [7],16 subjects
same,"Alanine aminotransferase increased (AE), Grade 1",[1]; [7],4 subjects
same,"Alanine aminotransferase increased (AE), Grade 3",[1]; [7],2 subjects
same,"Alanine aminotransferase increased (AE), Total",[1]; [7],6 subjects
same,"Anaemia (AE), Grade 1",[1]; [7],4 subjects
same,"Anaemia (AE), Grade 2",[1]; [7],2 subjects
same,"Anaemia (AE), Grade 3",[1]; [7],1 subjects
same,"Anaemia (AE), Total",[1]; [7],7 subjects
same,"Aspartate aminotransferase increased (AE), Grade 1",[1]; [7],2 subjects
same,"Aspartate aminotransferase increased (AE), Grade 2",[1]; [7],2 subjects
same,"Aspartate aminotransferase increased (AE), Grade 3",[1]; [7],2 subjects
same,"Aspartate aminotransferase increased (AE), Total",[1]; [7],6 subjects
same,"Blood bilirubin increased (AE), Grade 2",[1]; [7],3 subjects
same,"Blood bilirubin increased (AE), Grade 3",[1]; [7],4 subjects
same,"Blood bilirubin increased (AE), Total",[1]; [7],7 subjects
same,"Constipation (AE), Grade 1",[1]; [7],4 subjects
same,"Constipation (AE), Grade 2",[1]; [7],4 subjects
same,"Constipation (AE), Total",[1]; [7],8 subjects
same,"Decreased appetite (AE), Grade 1",[1]; [7],7 subjects
same,"Decreased appetite (AE), Grade 2",[1]; [7],2 subjects
same,"Decreased appetite (AE), Grade 3",[1]; [7],2 subjects
same,"Decreased appetite (AE), Total",[1]; [7],11 subjects
same,"Diarrhoea (AE), Grade 1",[1]; [7],5 subjects
same,"Diarrhoea (AE), Grade 2",[1]; [7],3 subjects
same,"Diarrhoea (AE), Total",[1]; [7],8 subjects
same,"Fatigue (AE), Grade 1",[1]; [7],3 subjects
same,"Fatigue (AE), Grade 2",[1]; [7],8 subjects
same,"Fatigue (AE), Grade 3",[1]; [7],3 subjects
same,"Fatigue (AE), Total",[1]; [7],14 subjects
same,"Insomnia (AE), Grade 1",[1]; [7],6 subjects
same,"Insomnia (AE), Total",[1]; [7],6 subjects
same,"Nausea (AE), Grade 1",[1]; [7],10 subjects
same,"Nausea (AE), Grade 2",[1]; [7],3 subjects
same,"Nausea (AE), Grade 3",[1]; [7],1 subjects
same,"Nausea (AE), Total",[1]; [7],14 subjects
same,"Pyrexia (AE), Grade 1",[1]; [7],6 subjects
same,"Pyrexia (AE), Total",[1]; [7],6 subjects
same,"Urinary tract infection (AE), Total","[1]; human, in vivo",2 subjects
same,major adverse events (AEs),"[1]; phase I/II study, solid tumors including pancreatic cancer",no major adverse events
same,anti-tumor activity,[2],robust anti-tumor activity
same,treatment until lesion no longer measurable,"[3]; 1 CR rGBM subject, MRI lesion measurement",9 cycles
same,time on study,"[3]; 1 CR rGBM subject, still on-going",476 days
same,overall disease control rate (DCR),[3]; 22 evaluable rGBM subjects,50%
same,subjects with complete response (CR),[3]; [8],3
same,subjects with partial response (PR),[3]; [8],1
same,subjects achieving CR,[3]; [9],3
same,subjects achieving SD,[3]; [9],3 subjects
same,average study duration,"[3]; rGBM subjects with CR, PR or SD",over 203 days
same,DCR,[3]; [10],67%
same,overall response rate,[3]; [10],33.3%
